How the values were obtained:
[1] = target: YFPc-SpvC (Salmonella enterica subsp. enterica serovar Typhimurium strain 14028s) (UniProt P0A2M9); assay: split reporter (BiFC, NanoBiT); BiFC with YFPn and YFPc fusions co-expressed in Arabidopsis epidermal cells by particle bombardment together with p35S-mCherry; fluorescence observed 24-48 h after transformation by confocal microscopy; YFP-positive cells counted among mCherry-positive cells
[2] = target: YFPn-SpvC (Salmonella enterica subsp. enterica serovar Typhimurium strain 14028s) (UniProt P0A2M9); assay: as above

Substance | percent of transformed cells with reconstituted YFP [1] | percent of transformed cells with reconstituted YFP [2]
YFPn-MPK6 (from UniProt Q39026 1-395) | 18% | 
YFPc-MPK6 (from UniProt Q39026 1-395) (transformed cells) |  | 34%

Reference: article PMC4201148
